{"source": "the nanobody polyreactivity screen of Harvey et al. (2022)", "data": [{"test": "yeast display, Sf9 membrane polyspecificity reagent, FACS + sequencing; frameworks hold sequencing errors", "outline": "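Polyreactivity labels are assigned by the sorting gate from which each nanobody was recovered. The gates were low and high (top ~1%), set on anti-HA fluorescence for expression and streptavidin fluorescence for reagent binding. Before sorting, galactose-induced (36–48 hours) yeast display cells were stained for 1 hour at 4 °C with 10% biotinylated, detergent-solubilized Sf9 membrane reagent.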", "values": [{"sequence": "QVQLVESGGGLVQAGGSLRLSCAASGFIIPGYAMGWYRQAPGKERELVAAISSGTSTYYADSVKGRFTISRDNAKNTVYLQMNSLKPEDTAVYYCAAETWYRFGYWGQGTQVTVSS", "polyreactivity (PSR sort gate)": "low polyreactivity"}, {"sequence": "QVQLVESGGGLVQAGGSLRLSCAASGFIITQYAMGWYSQEPGKERELVAAISGNGGRTYYADSVKGRFTISRDNAKYTVYLHLISLKPEDTAVYYCAVTYYWYGVRYDYWGQCTQVTVSS", "polyreactivity (PSR sort gate)": "high polyreactivity"}, {"sequence": "QVQLVESGGGLVQAGGSLRLSCAASGFIIVIYAMGWYIQAPGKERELVAAIRWRGGGTYYADSVKGRFTISRDNAKNTVYLQMNSLKPEDTAVYYCNADGWTYREEYWWRMDYWGLGTQVTVSS", "polyreactivity (PSR sort gate)": "low polyreactivity"}, {"sequence": "QVQLVESGGGLVQAGGSLRLSCAASGFIIYGYVMGWYRQAPGKERELVAAINSSSGRTYYADSVKGRFTISRDNAKNTVYLQMNSLKPEDTAVYYCAAYYYGSYDGTPYDYWGQGTQVTVSS", "polyreactivity (PSR sort gate)": "low polyreactivity"}, {"sequence": "QVQLVESGGGLVQAGGSLRLSCAASGFIIYRNARGWYRQAPGKERELVAGISSGGSTNYADSVKGRFTISRDNAKNTVYLQMTSLKPEDTADYYCATRVYALWFGRYDYWGQGTQVTVSS", "polyreactivity (PSR sort gate)": "high polyreactivity"}, {"sequence": "QVQLVESGGGLVQAGGSLRLSCAASGFIKFYAMGWYRQAPGKERELVASISSGGRTNYADSVKGRFTISRDNAKNTVYLQMNSLKPEDTAVYYCAAIGWRTRSRFEYWGQGTQVTVSS", "polyreactivity (PSR sort gate)": "high polyreactivity"}, {"sequence": "QVQLVESGGGLVQAGGSLRLSCAASGFILDTYGMGWYRQAPGKERELVAAISQSDVSTYYADSVKGRFTISRDNAKNTVSLQMNSLKPEDTAVYYCAADRAGLRWFWQLLYDYWGQGTQVTVSS", "polyreactivity (PSR sort gate)": "low polyreactivity"}, {"sequence": "QVQLVESGGGLVQAGGSLRLSCAASGFILDYNAMGWYRQAPGKERELVATITGRGDRTYYADSVKGRFTISRDNAKNTVYLQMNSLKPEDTAVYYCAAAYLIYSDYGPAMDYWGQGTQVTVSS", "polyreactivity (PSR sort gate)": "low polyreactivity"}, {"sequence": "QVQLVESGGGLVQAGGSLRLSCAASGFILDYNTMGWYRQAPGKERELVAAISSSGDTTYYADSVKGRFTISRDNAKNTVYLQMNSLKPEDTAVYYCGREYGDGYEYWGQGTQVTVSS", "polyreactivity (PSR sort gate)": "low polyreactivity"}, {"sequence": "QVQLVESGGGLVQAGGSLRLSCAASGFILEPNAMGWYRQAPGKERELVATISFSGGGTYYADSVKGRFTISRDNAKNTVYLQMNSLKPEDTAVYYCAADWYYYVWWYDYWGQGTQVTVSS", "polyreactivity (PSR sort gate)": "high polyreactivity"}, {"sequence": "QVQLVESGGGLVQAGGSLRLSCAASGFILGYYVMGWYRQAPGKERELVAAISSGGRTYYADSVKGRFTISRDNAKNTVYLQMNSLKPEDTAVYYCNAYAPRRRFDYWGQGTQVTVSS", "polyreactivity (PSR sort gate)": "high polyreactivity"}, {"sequence": "QVQLVESGGGLVQAGGSLRLSCAASGFILLYYAMGWYRQAPGKERELVAAISWTGGRTYYADSVKGRFTISRDNAKNTVYLQMNSLKPEDTAVYYCNTVKFFGRKYGYWGQGTQVTVSS", "polyreactivity (PSR sort gate)": "low polyreactivity"}, {"sequence": "QVQLVESGGGLVQAGGSLRLSCAASGFILPYYTMGWYRQAPGKDRELVAAITYSGASPFYADSVKGRFTISRVNAKNTVYLQMNSLKPEDTGVYYGANEWSGWYESPLDDGDYDYWGQGTEVTVSS", "polyreactivity (PSR sort gate)": "low polyreactivity"}, {"sequence": "QVQLVESGGGLVQAGGSLRLSCAASGFILRQNVMGWYRQAPGKERELVAAISRSGGRTYYADSVKGRFTISRDNAMNTVYFQMNSLKPEDTAVDYCNAGRYNYTDDYWGQGTQVTVSS", "polyreactivity (PSR sort gate)": "high polyreactivity"}, {"sequence": "QVQLVESGGGLVQAGGSLRLSCAASGFILVDYAMGWYRQAPGKERELVAAITYDGGSTYYADSVKGRFTISRDNAKNTVYLQMNSLKPEDTAVYYCAADYGYSQYILGQFRLEELDYWGQGTQVTVSS", "polyreactivity (PSR sort gate)": "low polyreactivity"}, {"sequence": "QVQLVESGGGLVQAGGSLRLSCAASGFILYFNAMGWYRQAPGKERELVAAITTDGGSTYYADSVKGRFTISRDNAKNTVYLQMNSLKPEDTAVYYCAADASTWYTEEYWGQGTQVTVSS", "polyreactivity (PSR sort gate)": "low polyreactivity"}, {"sequence": "QVQLVESGGGLVQAGGSLRLSCAASGFILYTYAMGWYIQAPGKERELVADIDSGDGTYYADSVKGRFTISRDNAKNTVYLQMNSLKPEDTAVDYCAADYGGASEYGYWGQGTQVTVSS", "polyreactivity (PSR sort gate)": "low polyreactivity"}]}]}
